The chains are these.
B1: c11450 (antibody, V domains shown)
V domain 1: EVQLAQSGAEMRKPGTTVRISCVISGHTTTDYYVHWVQQAPGKGPQWMGLINFEDANTVYSQSFRGRVSISADISEKTVFLDLTGLTSGDTALYFCTTHTLEKDSGDYVSAFDSWGQGTLLSVSP
V domain 2: QSMLTQPPSISAVPGQKVIISCSGRTSNIGTNFVSWYQQVPGAAPRLLMYDNSNRPSGISDRFSGAKSGSTATLAITALQTEDEADYYCGSWDSGLNPPIFVFGPGTRVFVI
B2: c27071 (antibody, V domains shown)
VH: QFRLEQSGAEVKRPGSSVKVSCKATGGTFHTFVLSWVRQAPGQALEWMGGIIPIFGTAKYAQRFQGRVTFTTDEATNTAYMDLRRLTSDDTAVYFCARSATSDTALVDYGDYEADTFYHNHMDVWGGGTSVTVSS
VL: QSVLTQPPSASATPGQRVTISCSGSSSNIGSNSVTWYHQLPGTAPKVLIYSNDRRPSGVPDRFSGSKSGTSASLAISGLQSDDEGDFYCAAWDDSLKSPVFGGGTKLTVL
B3: c18622 (antibody, V domains shown)
VH: EVRLLESGGGLVQPGQSLRLSCAASGFTFRNYALAWVRQTPRKGLEWVSLLSSSGDGAFYADSLKGRFTISRDNSKNTLYLEGHSLRADDSAIYYCVKVRWLQYDWHFDLWGRGALVTVSS
VL: AIRMTQSPSTLSASVGDRVTIACRASQDIGSSLAWYQQRPGQAPRLLIYKASVLEGGVPSRFSGSGSGTEFRLIISSLQADDYATYYCQQYSGYSCTFGQGTKVDIT
B4: c11673 (antibody, V domains shown)
VH: EVKLVESGGTQVQPGGSLRISCVGSGIRFSSYSFNWVRQAPGKGPEWLAYISASPFGRSKVTYAQSVEGRFTVSRDNDANSLYLQMTGLTRDDTAVYYCARAPYYEGNFHYNYAMDVWGLGTPVIVSS
VL: GVVLTQSPGTLSVSPGERATVSCRASQSLSRDSLVWYQQKPGQPPRLLIFGTSNRVPGIPDRFSGGGSGTQFTLTISRLEPEDFAVYYCQNYGLSPLYSFGQGTKLEIK
B5: c10919 (antibody, V domains shown)
VH: B4 VH with I27F
VL: B4 VL with V21I, F50Y, Y98F
B6: c9674 (antibody, V domains shown)
VH: EVKLVESGGTLVKPGGSLRISCAASGFRFSSYSFNWVRQAPGKGPEWVAYISASPLGRSKVNYAHSVEGRFSVSRDNDAKSLHLQMSGLTRDDTAVYHCARAPWYEGNFNYNYAMDVWGQGTTVIVSS
VL: B4 VL with V13L, A19V, F50Y, T52A, G66D, S77N, A85G, N91S, L94H
B7: c11452 (antibody, V domains shown)
VH: B4 VH with I27F, A49T, Q65P, T72I, Y98H, H110Q, P123T
VL: B4 VL with V13L, F50Y
B8: c1369 (antibody, V domains shown)
VH: QVRLHQWGEGLLRPSDTLSLTCSLSGNVFYRTFFNWIRQSPGKGLEWIAEVSFAGDWTYNPSLKSRVTTYVDGFKYHVSLQMRSMTAADAGVYYCASGGGSFDVDSWGQGIRVTVSS
VL: EIVLTQTPLSSSVTLGQSASISCRSSQSLQHSNGNTYLSWFQQRPGQPPRLLIRKISNRFSEVPDRFTGSGSGTDFTLTIDRVEPEDVGTYYCVQATQFPWTFGQGTTVDIT
B9: c1141 (antibody, V domains shown)
VH: B8 VH with R31E, T58N, V78A, Q81H, S97A, D105H
VL: B8 VL with S18A, R24T, S26N, Q27H, G46D, F60G, E62G, T68S, D75H
B10: c24251 (antibody, V domains shown)
VH: QVQLQESGPGLVKPSETLSLTCTVSGASINSYYWSWIRQTPGKGLEWIGFISNAGTTKYNPSLQSRVTISRDTSKNQVSLHLTSVTAADTAVYHCARDGLPGSNWGYNYAGMDVWGQGTTVTVTS
VL: DIQMTQSPSTLSASVGDRVTITCRTSQPISVWLAWYQQKPGKAPKVLIYRASSLEDGVPSRFSGSGSGTEFTLTISSLQPDDFATYFCQHYNTFSRTFGQGTKVEIK
B11: c5221 (antibody, V domains shown)
VH: QPQMKQSGIEVKKPGAAVKVSCKPSGYWFIACGISWVRQAPGRGLEWLGWVYPYNGKVNLARKFWGRVTLTADRSTETAYMELKSLTSDDTAIYYCARDSEQYDAAMPNYFTEYGMDVWGQGTTVIVSS
VL: EIVLTQSPDTLSLSPGETAALSCRASQSITGKGLAWYKQRPGQPPSLFVFGVSKRAAGVPDRVSGSGSGTDYILTIRRLEPEDSAVYFCQQYQDPARTFGQGTKLEIK
B12: c13217 (antibody, V domains shown)
VH: QVQLVESGGGVVQPGKSLRLSCTASGFDVGHFTMHWVRQAPGKGLEWVGLTRTDGNTEEYADSVKGRFAISRDNSKNTLSLQLNNVRAEDTAVYYCAKERVPLTAYAFDYWGQGTLVTVSS
VL: DIQMTQSPSSLSASVGDRVTITCRSSERIRTYVNWYQQKPGQAPQLLIYAASTLQNGVPSRFSGSGSGTVFTLTVNSLQPADFATYSCQQSYSLPWTFGQGTRVEVN
B13: c11395 (antibody, V domains shown)
VH: DVQLLQSNPQVTKPGTTMKISCKTSGFTFSDHFIHWVRLTPARGLEWLGLLDPQGGESVTVFSETFKDRVTMTADTSKNIAYMELHTLTSEDTALYFCATTTLENDDGDYVAAFDFWGQGTPVIVSS
VL: QSVLTQTPSVSAAPGQKVTISCSGSTSNIGSNFVSWYQHSPGAAPRLIIYNNAERPSGIPARFSGSKSGSSATLAITGLQTEDEAEYFCAAWNNGLKSAHYVFGTGTRLSVL
B14: c13501 (antibody, V domains shown)
VH: QVQLQQWGAGLLKPSETLSLTCAIYGGSFDDNSWTWIRQSPGGGLEWIGEIKYSGTSDYNLSLKSRITMSIDMSKKQFSLKLTSVTAADTGLYFCARARLSKFNSAWSWEHHYYMDVWATGTAVTVSS
VL: DIQMTQSPSSLSASVGDRVTVTCRASQNIGNYLNWYQQKPGKAPKLLIFATSTLHGGVPSRFSGSGSGTDFTLSITNVQSEDVAIYFCQQSYSVPYSFGRGTSLDMR
B15: c5300 (antibody, V domains shown)
VH: QMQLQESGPGLVKPSETLTVTCYVSGGSISRYHWAWIRQSAGKPLEWIGSVYGNSGSVRSSPSLHTRVALVIGSTYFSLKLKSATAADTAVYYCARELARDFNYDFGHGGSSFGIDVWGRGIMVTVSS
VL: NFILTQPHSVSGSPGKTVIISCTRSSGNIGDNSVQWYQHRPGTSPTTVISEKNRRPSGIPGRFSASIDTSSNSASLTISDLRSEDEAVYYCQSCDGGNRLIFGGGTTLTVL
B16: c21122 (antibody, V domains shown)
VH: QVQLAQSAAEVKRPGASVKVSCKVSGNTLMEVSIQWVRQTPGKGLEWLGGFAPEKDDWVYAQKFLGRVTMTEDTSTDIAYMHMNSLTSDDTATYYCVGGWQAWGQGTLVTVSS
VL: DIQMTQSPSSLSASVGDRITITCRASQDIINYLAWYQQQAGRAPKSLIYAASSLQSGVPSKFSGSGSGTNFSLTISSLQPEDFATYYCQQYYSYPLTFGGGTKVDLR
B17: c29288 (antibody, V domains shown)
VH: QVRLQESGPGLVRPSETLSLTCLVSGDSITSNYWSWIRQPPGKTLEWIGFMYNSGDANYNPSLQSRVSISADTAKNHFALRLTSVTAADTAVYYCARHPSRGSDYESATGDTYYYYYGMDVWGPGIAVAVSS
VL: DIQMTQSTPSLSASLGDKITISCQASRDIDTSLNWYQQKPGKSPKLLIVAASTLETGVPSRFSASGSGTHFTLTINDLHRDDVATYFCQQYMGLPLTFGGGTRVDLR
B18: c5539 (antibody, V domains shown)
VH: QVRLEQWGPGLLKPSETLSLTCAVYGESFDDYSWTWIRQTPSLGLQWIGEIRPFGEIVHKSSLSGRLSFSRDASMRRVYLKLTSVTAADAGVYFCARGPVIYQNPHFYYRGYNVWGQGTTVTVSA
VL: DVAVTQSPRSLVVTPGETATIFCRSSQSLRHGNGMHYLDWYLQKPGQSPQLLIYLTSNRASGVPDRFSGSGSGTEFTLKISRVEADDVGIYYCMQAIQDPRVFGQGTRLELK
B19: c11058 (antibody, V domains shown)
V domain 1: EVRLDQSGTEMRKPGTRVRLSCKVSGHTTSDFFVHWVQQTPQGGPQWMGLINVEDENVIYADIFQGRISIVADTSKKTVFLDLTDLTFEETALYFCTTHTLQKDTGDYVAAFDSWGRGTLLYVSS
V domain 2: QPVLTQPPSVSAVPGQKVIISCSGRTSNIGTNFVSWYQQFPGAAPKLLIYDDFNRPSGISDRFSASKSDTSATLAITALQPGDEAEYYCGAWDSGLNPAVFVFGSGTRVFVL
B20: c10833 (antibody, V domains shown)
V domain 1: EVRLDQSGAEMRKPGTSVRLSCTVSGHTTNDFFIHWVKQDPQRGPLWMGLINVEDENVIYAEEFQGRISIVADSSKTTVFLDLSHLTFEDTALYLCTTHTLEKETGDYVAAFDSWGQGTFLSVSS
V domain 2: B19 V domain 2 with P2S, D52T, N54H, A91S
B21: c7488 (antibody, V domains shown)
VH: QVRLEQWGGGLLKPSETLSLTCAAWDDNFHRYHWTWVRQFPGGRLQWIGQCEPFGAIKSNPSLGGRAGLSLDDSLRRFILTLRSLNVADTGVYFCVRGPERFHQPHFYYQGLGLWGPGSPVIVSS
VL: DVELTQSPLSLSVNPGESVSLFCRSTESLRNANGHDYLDWYVQKPGQSPQILIFLGSGRASGLPDRITASGSGSAFTLRIDKVEADDVGVYYCMQSIQLPRTFGQGTRLEIK

Numbering of substitutions follows the chain as printed.

Experimental findings from article PMC8196545 (Cell reports, 2021) are described below.

In the experiment the target is HIV-1 NL4-3 Env on infected cells (HIV-1 group M subtype B, NL4-3 (pNL4-3 …, strain)).
For B1, the binding result is recorded as “binds”. With B2, the binding result is given as “binds”.

Turning to B3, the binding result was “binds”. For B4, the binding result is on record as “binds”. To B5 belongs “binds”; to B6, “binds”; to B7, “binds”. As to B8, the binding result is “binds”. As to B9, the binding result is given as “binds”. For B10, the binding result is listed as “binds”.

B11: the binding result is “binds”. Consider B12, for which the binding result is “binds”. To B13 belongs “binds”; to B14, “binds”. To B15 belongs “binds”; to B16, “binds”. Turning to B17, the binding result is given as “binds”. As for B18, the binding result is recorded as “binds”. For B19, the binding result was “binds”. B20: the binding result is given as “binds”. B21: the binding result is “binds”.
